# B1: Protein phosphatase 2C 16 (Arabidopsis thaliana (Mouse-ear cress)), Q9CAJ0 (parent)
# chain: MEEMTPAVAMTLSLAANTMCESSPVEITQLKNVTDAADLLSDSENQSFCNGGTECTMEDVSELEEVGEQDLLKTLSDTRSGSSNVFDEDDVLSVVEDNSAVISEGLLVVDAGSELSLSNTAMEIDNGRVLATAIIVGESSIEQVPTAEVLIAGVNQDTNTSEVVIRLPDENSNHLVKGRSVYELDCIPLWGTVSIQGNRSEMEDAFAVSPHFLKLPIKMLMGDHEGMSPSLTHLTGHFFGVYDGHGGHKVADYCRDRLHFALAEEIERIKDELCKRNTGEGRQVQWDKVFTSCFLTVDGEIEGKIGRAVVGSSDKVLEAVASETVGSTAVVALVCSSHIVVSNCGDSRAVLFRGKEAMPLSVDHKPDREDEYARIENAGGKVIQWQGARVFGVLAMSRSIGDRYLKPYVIPEPEVTFMPRSREDECLILASDGLWDVMNNQEVCEIARRRILMWHKKNGAPPLAERGKGIDPACQAAADYLSMLALQKGSKDNISIIVIDLKAQRKFKTRT
# partner: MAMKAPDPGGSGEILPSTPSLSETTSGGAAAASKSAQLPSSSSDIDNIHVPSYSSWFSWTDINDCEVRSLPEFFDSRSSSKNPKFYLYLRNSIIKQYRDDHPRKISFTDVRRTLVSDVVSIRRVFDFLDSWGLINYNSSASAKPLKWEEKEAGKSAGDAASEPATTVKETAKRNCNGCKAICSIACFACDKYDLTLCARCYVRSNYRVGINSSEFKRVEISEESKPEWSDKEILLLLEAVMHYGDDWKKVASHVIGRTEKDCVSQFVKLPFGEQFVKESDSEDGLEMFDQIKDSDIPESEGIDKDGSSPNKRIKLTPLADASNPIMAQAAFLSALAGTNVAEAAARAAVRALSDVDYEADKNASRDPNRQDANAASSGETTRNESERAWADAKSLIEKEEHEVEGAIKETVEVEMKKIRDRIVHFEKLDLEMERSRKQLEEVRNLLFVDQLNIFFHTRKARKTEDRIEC
# Variants of: B1
# Settings: with swi3b_arath SWI3B
row,effect of a mutation on the interaction,Variant
1,disrupting interaction,G246D

# — IntAct's records for PubMed 19033529
